Assay results: publication PMC7897226

B1: CheD_(1–200)-T18 (natural protein)
chain: MNLQAREGAPLNRYYDPYFACDAVKLLPGEYFASGEDLVIVTVLGSCVSVCLRDPLNGIAGMNHFMLPERGLGGDPASPSARYGSHAMELLINRMLALGASRERLQAKVFGGGSVLRQISAAIGQRNVEFTLDYLATERIPLLASDVLEAFPRKIYFFPRNGRVLVKSLVELKNDTVLQRERDYRRRIDRNADGGPIDLF

How the values were obtained:
[1] = target: CheY2-T25 (P. aeruginosa); test: two-hybrid
[2] = target: T25-CheY2 (P. aeruginosa); test: two-hybrid

Molecule | fold β-galactosidase activity over controls [1] [fold] | fold β-galactosidase activity over control [2] [fold]
T18-CheA2 (enzyme) | 34 | 
B1 |  | 15
